Data from US20240252592A1 (TIANJIN INSTITUTE OF PHARMACEUTICAL RESEARCH, published 2024).
Numbered stars: 1 amine (or outer) side, 2 acyl side, 3 side chain; on linkers, the order of the positions; unused ones are H or OH. Square brackets hold non-standard residues; d marks the D form. Side chains are listed from the residue outwards. Ends that are not written are not given here. * marks the point of attachment. OC17H32COOH = fatty diacid acyl group -OC17H32COOH on the linker; C20 diacid = O=C(O)CCCCCCCCCCCCCCCCCCC(=O)*; C18 diacid = O=C(O)CCCCCCCCCCCCCCCCC(=O)*; γGlu = O=C(O)[C@H](CCC(=O)[*:2])N[*:1]; Palmitoyl = CCCCCCCCCCCCCCCC(=O)*; AEEA = NCCOCCOCC(=O)O; Aib = CC(C)(N)C(=O)O

Key:
GC receptor = assay: cell-based or functional assay
human GLP-1 receptor = human GLP-1 receptor (human, UniProt P43220 24-463); assay: cell-based or functional assay

Binder	EC50 of GC receptor mediated cAMP production (GC receptor) [nM]	EC50 of GLP-1 receptor mediated cAMP production (human GLP-1 receptor) [nM]
HXQGTFTSDYSKYLEEKRAKEFVEWLLEAGGPSSG (HELM PEPTIDE1{H.[Aib].Q.G.T.F.T.S.D.Y.S.K.Y.L.E.E.K.R.A.K.E.F.V.E.W.L.L.E.A.G.G.P.S.S.G.[am]}|PEPTIDE2{[CCCCCCCCCCCCCCCC(=O)[*:2]].[gGlu].[gGlu]}$PEPTIDE1,PEPTIDE2,20:R3-3:R2$$$V2.0; N-terminus assumed; SMILES CCCCCCCCCCCCCCCC(=O)N[C@@H](CCC(=O)N[C@@H](CCC(=O)NCCCC[C@H](NC(=O)[C@H](C)NC(=O)[C@H](CCCNC(=N)N)NC(=O)[C@H](CCCCN)NC(=O)[C@H](CCC(=O)O)NC(=O)[C@H](CCC(=O)O)NC(=O)[C@H](CC(C)C)NC(=O)[C@H](Cc1ccc(O)cc1)NC(=O)[C@H](CCCCN)NC(=O)[C@H](CO)NC(=O)[C@H](Cc1ccc(O)cc1)NC(=O)[C@H](CC(=O)O)NC(=O)[C@H](CO)NC(=O)[C@@H](NC(=O)[C@H](Cc1ccccc1)NC(=O)[C@@H](NC(=O)CNC(=O)[C@H](CCC(N)=O)NC(=O)C(C)(C)NC(=O)[C@@H](N)Cc1c[nH]cn1)[C@@H](C)O)[C@@H](C)O)C(=O)N[C@@H](CCC(=O)O)C(=O)N[C@@H](Cc1ccccc1)C(=O)N[C@H](C(=O)N[C@@H](CCC(=O)O)C(=O)N[C@@H](Cc1c[nH]c2ccccc12)C(=O)N[C@@H](CC(C)C)C(=O)N[C@@H](CC(C)C)C(=O)N[C@@H](CCC(=O)O)C(=O)N[C@@H](C)C(=O)NCC(=O)NCC(=O)N1CCC[C@H]1C(=O)N[C@@H](CO)C(=O)N[C@@H](CO)C(=O)NCC(N)=O)C(C)C)C(=O)O)C(=O)O) [Compound 26]	0.197	0.193
H[Aib]QGTFTSDYSKYLDEKRAK([AEEA-AEEA-γGlu-C18 diacid])EFIAWLEAGGPSSG-NH2 (not fully specified; printed as HAibQGTFTSDYSKYLDEKRAK**EFIAWLEAGGPSSG-Amid) [Compound 50]	0.048	0.119
HSQGTFTSDYSKYLDERAAK([AEEA-AEEA-γGlu-C18 diacid])EFIAWLEGGPSSG-NH2 (not fully specified; printed as HSQGTFTSDYSKYLDERAAK**EFIAWLEGGPSSG-Amid) [Compound 38]	0.102	0.716
H[Aib]QGTFTSDYSKYLDERKAK([γGlu-γGlu-Palmitoyl])EFVEWLEGGPSSG-NH2 (not fully specified; printed as HAibQGTFTSDYSKYLDERKAK*EFVEWLEGGPSSG-Amid) [Compound 69]	0.261	0.778
H[Aib]QGTFTSDYSKYLEEKRAK([AEEA-AEEA-γGlu-C18 diacid])EFVAWLEGGPSSG-NH2 (not fully specified; printed as HAibQGTFTSDYSKYLEEKRAK**EFVAWLEGGPSSG-Amid) [Compound 74]	0.725	0.842
H[Aib]QGTFTSDK([AEEA-AEEA-γGlu-C18 diacid])SKYLEERAAKEFIAWLEAGGPSSG-NH2 (not fully specified; printed as HAibQGTFTSDK**SKYLEERAAKEFIAWLEAGGPSSG-Amid) [Compound 27]	0.014	0.011
H[Aib]QGTFTSDYSKYLEERKAK([AEEA-AEEA-γGlu-C18 diacid])EFIAWLEAGGPSSG-NH2 (not fully specified; printed as HAibQGTFTSDYSKYLEERKAK**EFIAWLEAGGPSSG-Amid) [Compound 44]	0.219	0.371
H[Aib]QGTFTSDYSKYLEEKRAK([AEEA-AEEA-γGlu-C18 diacid])EFVEWLEAGGPSSG-NH2 (not fully specified; printed as HAibQGTFTSDYSKYLEEKRAK**EFVEWLEAGGPSSG-Amid) [Compound 54]	0.274	0.219
H[Aib]QGTFTSDYSKYLDEKRAK([γGlu-γGlu-Palmitoyl])EFIAWLEAGGPSSG-NH2 (not fully specified; printed as HAibQGTFTSDYSKYLDEKRAK*EFIAWLEAGGPSSG-Amid) [Compound 57]	0.081	0.094
H[Aib]QGTFTSDYSKYLEERAAK([AEEA-AEEA-γGlu-C18 diacid])EFVEWLEGGPSSG-NH2 (not fully specified; printed as HAibQGTFTSDYSKYLEERAAK**EFVEWLEGGPSSG-Amid) [Compound 32]	0.077	1.01
H[Aib]QGTFTSDYSKYLEEKRAK([AEEA-AEEA-γGlu-C18 diacid])EFVAWLEAGGPSSG-NH2 (not fully specified; printed as HAibQGTFTSDYSKYLEEKRAK**EFVAWLEAGGPSSG-Amid) [Compound 53]	0.316	0.532
H[Aib]QGTFTSDYSKYLEEKRAK([γGlu-γGlu-Palmitoyl])EFVEWLEGGPSSG-NH2 (not fully specified; printed as HAibQGTFTSDYSKYLEEKRAK*EFVEWLEGGPSSG-Amid) [Compound 76]	0.191	0.22
HXQGTFTSDKSKYLXERAAKEFIXWLEAGGPSSG (not fully specified; Lys 10 side chain -Ado-Ado-γE-OC17H32COOH; C-terminal amide) [Compound 36]	0.069	0.072
HXQGTFTSDKSKYLXERAAKEFIXWLEAGGPSSG (not fully specified; Lys 10 side chain -Ado-Ado-γE-OC17H32COOH; C-terminal amide) [Compound 79]	0.025	0.033
HXQGTFTSDKSKYLXERAAKEFIXWLEAGGPSSG (HELM PEPTIDE1{H.[Aib].Q.G.T.F.T.S.D.K.S.K.Y.L.E.E.R.A.A.K.E.F.I.A.W.L.E.A.G.G.P.S.S.G.[am]}|PEPTIDE2{[CCCCCCCCCCCCCCCC(=O)[*:2]].[gGlu].[gGlu]}$PEPTIDE1,PEPTIDE2,10:R3-3:R2$$$V2.0; N-terminus assumed; SMILES CCCCCCCCCCCCCCCC(=O)N[C@@H](CCC(=O)N[C@@H](CCC(=O)NCCCC[C@H](NC(=O)[C@H](CC(=O)O)NC(=O)[C@H](CO)NC(=O)[C@@H](NC(=O)[C@H](Cc1ccccc1)NC(=O)[C@@H](NC(=O)CNC(=O)[C@H](CCC(N)=O)NC(=O)C(C)(C)NC(=O)[C@@H](N)Cc1c[nH]cn1)[C@@H](C)O)[C@@H](C)O)C(=O)N[C@@H](CO)C(=O)N[C@@H](CCCCN)C(=O)N[C@@H](Cc1ccc(O)cc1)C(=O)N[C@@H](CC(C)C)C(=O)N[C@@H](CCC(=O)O)C(=O)N[C@@H](CCC(=O)O)C(=O)N[C@@H](CCCNC(=N)N)C(=O)N[C@@H](C)C(=O)N[C@@H](C)C(=O)N[C@@H](CCCCN)C(=O)N[C@@H](CCC(=O)O)C(=O)N[C@@H](Cc1ccccc1)C(=O)N[C@H](C(=O)N[C@@H](C)C(=O)N[C@@H](Cc1c[nH]c2ccccc12)C(=O)N[C@@H](CC(C)C)C(=O)N[C@@H](CCC(=O)O)C(=O)N[C@@H](C)C(=O)NCC(=O)NCC(=O)N1CCC[C@H]1C(=O)N[C@@H](CO)C(=O)N[C@@H](CO)C(=O)NCC(N)=O)[C@@H](C)CC)C(=O)O)C(=O)O) [Compound 1]	0.0574	0.0654
H[Aib]QGTFTSDYSKYLEERKAK([γGlu-γGlu-Palmitoyl])EFVEWLEGGPSSG-NH2 (not fully specified; printed as HAibQGTFTSDYSKYLEERKAK*EFVEWLEGGPSSG-Amid) [Compound 62]	0.156	0.313
H[Aib]QGTFTSDYSKYLEERKAK([AEEA-AEEA-γGlu-C20 diacid])EFIAWLEGGPSSG-NH2 (not fully specified; printed as HAibQGTFTSDYSKYLEERKAK***EFIAWLEGGPSSG-Amid) [Compound 68]	0.314	0.13
H[Aib]QGTFTSDYSKYLDERKAK([AEEA-AEEA-γGlu-OC17H32COOH])EFIEWLEGGPSSG-NH2 (not fully specified; printed as HAibQGTFTSDYSKYLDERKAK**EFIEWLEGGPSSG-Amid) [Compound 66]	0.058	0.051
H[Aib]QGTFTSDYSKYLDERKAK([AEEA-AEEA-γGlu-C18 diacid])EFVEWLEAGGPSSG-NH2 (not fully specified; printed as HAibQGTFTSDYSKYLDERKAK**EFVEWLEAGGPSSG-Amid) [Compound 42]	0.024	0.52
